We go through six molecules from publication PMC5487423 (2017).

Residue numbers refer to the chain shown, from its start.

What is called Kd is the equilibrium constant for the complex coming apart. A low value points to a tighter complex.

Test in all cases: BLI
The target of one experiment is T1, CCL4L1_HUMAN (Homo sapiens).
T1 chain: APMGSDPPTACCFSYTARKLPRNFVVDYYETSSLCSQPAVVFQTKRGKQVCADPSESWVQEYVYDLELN

For a further experiment, the target named is T2, CCL8 (human, UniProt P80075 24-99).
T2 chain: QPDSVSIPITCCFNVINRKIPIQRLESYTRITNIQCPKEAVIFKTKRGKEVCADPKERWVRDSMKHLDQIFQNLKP

The next experiment has as its target T3, CCL1 (human, UniProt P22362 24-96).
T3 chain: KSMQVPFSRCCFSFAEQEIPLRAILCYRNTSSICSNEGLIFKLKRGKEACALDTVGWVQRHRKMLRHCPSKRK

A further experiment deals with T4, CCL5 (human, UniProt P13501 24-91).
T4 chain: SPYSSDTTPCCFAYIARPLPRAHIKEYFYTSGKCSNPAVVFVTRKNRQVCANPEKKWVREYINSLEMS

For a further experiment, the target named is T5, CCL24_HUMAN (Homo sapiens).
T5 chain: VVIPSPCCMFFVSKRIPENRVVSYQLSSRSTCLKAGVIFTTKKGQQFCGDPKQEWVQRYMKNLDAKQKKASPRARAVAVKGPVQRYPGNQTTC

B1: P983_AMBCA, purified, C-terminal StrepII-8xHis tag (natural protein)
chain: ETGEDTGTEDDFDYGNTGCPFPVLGNYKSNMTKPVGCKNKCGSGYEVLNDTTPCYVIDQKVFNNMVPLRQYSKCPLGFCENGECKPNDQAEDCYKGREEQKGGGGGSGGGGSGGASAWSHPQFEKLEHHHHHHHH
B1: the affinity with CCL4L1_HUMAN, expressed as Kd, was 2.9 nM.

B2: P1183_AMBTR, purified, C-terminal StrepII-8xHis tag (natural protein)
chain: ETGEAPKDDFEYDGGCPFVVLDNGTHVKPAGCSHLCNGAPETLDNIECYNVTEEVAKRMTPGIPYACWLGWCSKGECKRDNRTEVCYRGSEEE
Consider B2, for which the Kd with CCL8 amounted to 1100 nM.

B3: P974_AMBCA, purified, C-terminal StrepII-8xHis tag (natural protein)
chain: ETGENTQQEEQDYDYGTDTCPFPVLANKTNKAKFVGCHQKCNGGDQKLTDGTACYVVERKVWDRMTPMLWYECPLGECKNGVCEDLRKKEDCRKGNGEEK
Turning to B3, the results for the Kd with CCL1 and with CCL8 were 71 nM and 2.6 nM, respectively.

B4: P546_AMBCA, purified, C-terminal StrepII-8xHis tag (natural protein)
chain: B3 chain with Q11E, E72S, D91E
Consider B4, for which the results for the Kd with CCL4L1_HUMAN and with CCL8 were 8.9 nM and 1.3 nM, respectively.

B5: P467_RHIPU, purified, C-terminal StrepII-8xHis tag (natural protein)
chain: ETGAEKSLDSDSSGEDYELWTQGCPFLVAENRTGFGTTVSCQHNCNGAIEKVPEGEPCYTIGEDGLGRMKLNLPYNCSLGECSGGVCVPNGRSDVCFKRTWEENNKAMA
As for B5, the values for the dissociation constant (Kd) in the experiment with CCL4L1_HUMAN, in the experiment with CCL5 and in the experiment with CCL1 were 4.7 nM, 7.7 nM and 53 nM, respectively.

B6: P985_AMBPA, purified, C-terminal StrepII-8xHis tag (natural protein)
chain: ETGDEESEELGASTDVDYEELDANCTCPAPALTSTRNNKHYPLGCIYNCSSYNCTIPDGTPCYVLTLGEVKEHLQIGSTVPNCTCGLCRNGTCVSNGTVEECFAVEEIEET
B6: the Kd turned out to be 21 nM with CCL4L1_HUMAN, 41 nM with CCL24_HUMAN and 8.3 nM with CCL1.
